For the series the following is noted: Escherichia coli (strain K12), pH 7.4, Thermal, DSC, sodium phosphate 10 mM, transition: 3, reversible: yes, whole UniProt chain shown.

“And” between values parts separate entries of the source, which are not always exact repeats. Equal entries are not always repeated.

B1: DNA-binding protein HU-alpha wild type, P0ACF0 (protein)
chain: MNKTQLIDVIAEKAELSKTQAKAALESTLAAITESLKEGDAVQLVGFGTFKVNHRAERTGRNPQTGKEIKIAAANVPAFVSGKALKDAVK
With B1, where the note is “NaCl 1 M”, the “heat capacity change of unfolding” value was 0.55 kcal/mol/K and 0.9 kcal/mol/K; the “unfolding enthalpy (calorimetric)” value was 49.7 kcal/mol and 39.3 kcal/mol and 33.7 kcal/mol. Also, for the setting “NaCl 1M”, the melting temperature (Tm) (in general, the temperature at which the thermal transition is half complete) was 69 °C; the “heat capacity change of unfolding” value worked out at 0.55 kcal/mol/K; the “unfolding enthalpy (calorimetric)” value is 42.8 kcal/mol.

(Values after FireProtDB (doi:10.1016/s0022-2836(03)00725-3).)
